Test results published in patent US20240117005A1 (COUNCIL OF THE QUEENSLAND INSTITUTE OF MEDICAL RESEARCH, published 2024).
Starred links: 1 amine or outer side, 2 acyl side, 3 side chain; linkers in the order of their positions; H or OH if unused. Positions of bridges follow the written chain, without caps; N, C: chain ends. No end group written: not given here. *: point of attachment. TBMB = c1c(C[*:1])cc(C[*:3])cc1C[*:2]; Myristyl = CCCCCCCCCCCCCC*

B1: DL-2 nanoparticle (DL-2 bicyclic peptide encapsulated in a lipid nanoparticle) (peptide)
peptide: ACLTFIFCRLRKGRCMMDVKK
modifications: N-terminal myristyl; cysteines covalently bound to the TBMB scaffold (bicyclic); peptide packaged in a POPC / cholesterol / DSPE-PEG lipid nanoparticle
notes: Same peptide as DL-2, in a different formulation; also called DL-2-NP

How the values were obtained:
importin-α1 (IMPα1) [1] = molecular target: T1, importin-α1 (IMPα1) (human, UniProt P52292 2-529); experiment: DUOLINK proximity ligation; IC50 of DL-2-NP against IC50 of naked DL-2 for the PDL1:IMPα1 complex
importin-α1 (IMPα1) [2] = molecular target: T1, importin-α1 (IMPα1); experiment: DUOLINK proximity ligation in permeabilised MDA-MB-231 cells; loss of the PDL1:IMPα1 complex, DL-2-NP 10 to 0.3 nM
importin-α1 (IMPα1) [3] = molecular target: T1, importin-α1 (IMPα1); experiment: DUOLINK proximity ligation in permeabilised MDA-MB-231 cells; loss of the PDL1-Ac:IMPα1 complex, DL-2 10 to 0.00975 µM

Binder	fold more potent than DL-2 (importin-α1 (IMPα1) [1]) [fold]	IC50 (importin-α1 (IMPα1) [2]) [nM]	IC50 (importin-α1 (IMPα1) [3]) [nM]
B1	~39	1	
Myristyl-ACLTFIFCRLRKGRCMMDVKK (linker 2-8-15 via TBMB, also called DL-2-TBMB; DL-2-Batch 1) [DL-2 bicyclic peptide (Myristyl-ACLTFIFCRLRKGRCMMDVKK on TBMB scaffold)]			39
